Measurements as given in paper PMC5828221.

Biological target: purified recombinant histone H3 protein (Active Motif C110A), PARylated in vitro by PARP1 (UniProt P68431)

decrease in H3K27me3 ELISA after in vitro methylation by the EZH2/PRC2 complex of PARylated against unmodified recombinant histone H3 (PARP1 removed beforehand): 30%
Substance: human EZH2/EED/SUZ12/RbAp48/AEBP2 Complex (from UniProt Q15910 1-746; O75530 1-441; Q15022 1-739; Q09028 1-425; Q6ZN18 1-517)
